B1: mA116huFc Ab (Fc fusion)
chain: MRGSHHHHHHGMASMTGGQQMGRDLYDDDDKDRWGSELEICSWYHGIPLVVPFYAAQPAMAQVQLQESGPELVKPGASVKISCKASGYTFTDYHVHWVKGKPGQGLEWIGMTYPGFDNTNYSETFKGKATLTVDTSSNTVYMQLSSLTSEDTAVYFCARGVGLDYWGQGTTVTVSSGGGGSGGGGSGGGGSDIELTQSPNSLSTSIGDRIRITCKASQDVDTAVGWYQQRPGQSPKLLIFWSSTRHTGVPDRFTGSGSGTDFTLTISNVQSEDLADYFCHQYSSYPFTFGSGTKLEIKRAAAGCLVKDYFPEPVTVSWNSGALTSGVHTFPAVLQSSGLYSLSSVVTVPSSSLGTQTYICNVNHKPSNTKVDKRVEPKSCDKTHTCPPCPAPELLGGPSVFLFPPKPKDTLMISRTPEVTCVVVDVSHEDPEVKFNWYVDGVEVHNAKTKPREEQYNSTYRVVSVLTVLHQDWLNGKEYKCKVSNKALPAPIEKTISKAKGQPREPQVYTLPPSRDELTKNQVSLTCLVKGFYPSDIAVEWESNGQPENNYKTTPPVLDSDGSFFLYSKLTVDKSRWQQGNVFSCSVMHEALHNHYTQKSLIRLLTKPERKLSWLLPPLSNN
notes: also called recombinant mA116huFc Ab; 70 kDa protein
B2: mA116 scFv Ab (scFv)
scFv: QVQLQESGPELVKPGASVKISCKASGYTFTDYHVHWVKGKPGQGLEWIGMTYPGFDNTNYSETFKGKATLTVDTSSNTVYMQLSSLTSEDTAVYFCARGVGLDYWGQGTTVTVSSGGGGSGGGGSGGGGSDIELTQSPNSLSTSIGDRIRITCKASQDVDTAVGWYQQRPGQSPKLLIFWSSTRHTGVPDRFTGSGSGTDFTLTISNVQSEDLADYFCHQYSSYPFTFGSGTKLEIK
notes: also called repaired A116 scFv Ab

Experiments:
human C1q protein = molecular target: T1, human C1q protein (human, UniProt P02745 23-245; P02746 28-253; P02747 29-245); assay: ELISA on strips coated with human C1q, HRP-anti-human Ab detection
T1 construct: also called human C1q complement

protein G agarose = protein G agarose (UniProt P06654 228-352); assay: protein G agarose precipitation, SDS-PAGE with Coomassie staining
protein G agarose, sequence (P06654 228-352): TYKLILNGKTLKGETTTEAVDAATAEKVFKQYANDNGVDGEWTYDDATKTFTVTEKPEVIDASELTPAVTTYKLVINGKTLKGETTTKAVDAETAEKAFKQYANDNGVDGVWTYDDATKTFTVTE

T1 sequence (P02745 23-245 limits assumed, chain 1 of 3): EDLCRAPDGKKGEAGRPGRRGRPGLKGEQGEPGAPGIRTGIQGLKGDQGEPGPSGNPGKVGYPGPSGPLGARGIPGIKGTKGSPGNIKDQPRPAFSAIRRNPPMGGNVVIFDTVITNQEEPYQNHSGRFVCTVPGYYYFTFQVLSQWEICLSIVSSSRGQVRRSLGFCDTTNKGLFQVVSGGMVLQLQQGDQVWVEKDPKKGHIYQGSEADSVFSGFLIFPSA
T1 sequence (P02746 28-253 limits assumed, chain 2 of 3): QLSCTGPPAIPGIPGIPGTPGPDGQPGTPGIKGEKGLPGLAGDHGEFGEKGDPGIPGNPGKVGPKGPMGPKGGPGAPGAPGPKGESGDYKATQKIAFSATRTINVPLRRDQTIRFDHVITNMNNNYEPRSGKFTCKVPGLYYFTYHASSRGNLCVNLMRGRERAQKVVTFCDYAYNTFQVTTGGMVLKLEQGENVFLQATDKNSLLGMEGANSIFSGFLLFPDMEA
T1 sequence (P02747 29-245 limits assumed, chain 3 of 3): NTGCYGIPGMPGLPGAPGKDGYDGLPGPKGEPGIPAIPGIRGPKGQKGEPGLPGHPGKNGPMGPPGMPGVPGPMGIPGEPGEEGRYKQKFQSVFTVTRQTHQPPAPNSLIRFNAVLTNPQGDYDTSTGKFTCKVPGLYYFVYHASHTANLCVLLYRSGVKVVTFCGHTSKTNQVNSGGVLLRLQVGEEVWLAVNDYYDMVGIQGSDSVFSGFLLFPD

Row | Binder | binding result (human C1q protein) | binding result (protein G agarose)
1 | B1 | binds | 
2 | B2 |  | no binding
